Laboratory results taken from article doi:10.1101/2025.02.14.638310 (bioRxiv, 2025).

B1: RUPA-71 Fab (Fab, V domains shown)
VH: EEQLVESGGGLVKPGRSLRLSCSASGFTLGDYAVTWFRQASGKEPEWVGVIRTKDEGGTTEYAASVKGRFSILRDDSKSIAHLQMNSLKIEDTAVYYCTRNGLRWYDSSGPRGWAFDIWGPGTLVVVSS
VL: EIVMTQSPATVSVSPGERATLSCRTSQSVSNKLAWYQQKPGQAPRLLIYGASTRATGIPARFSGSGSGTQFTLTISSLQSEDFAVYYCQQYNNWPPWTFGRGTKVEIK
notes: source: Freestyle 293-F or 293-S cells, transfected, purified (KappaSelect, MonoS cation exchange)
B2: Pfs48/45 (endogenous) (natural protein)
chain: NNDFCKPSSLNSEISGFIGYKCNFSNEGVHNLKPDMRERRSIFCTIHSYFIYDKIRLIIPKKSSSPEFKILPEKCFQKVYTDYENRVETDISELGLIEYEIEENDTNPNYNERTITISPFSPKDIEFFCFCDNTEKVISSIEGRSAMVHVRVLKYPHNILFTNLTNDLFTYLPKTYNESNFVSNVLEVELNDGELFVLACELINKKCFQEGKEKALYKSNKIIYHKNLTIFKAPFYVTSKDVNTECTCKFKNNNYKIVLKPKYEKKVIHGCNFSSNVSSKHTFTDSLDISLVDDSAHISCNVHLSEPKYNHLVGLNCPGDIIPDCFFQVYQPESEELEPSNIVYLDSQINIGDIEYYEDAEGDDKIKLFGIVGSIPKTTSFTCICKKDKKSAYMTVTID
B3: 2A2 Fab (Fab, V domains shown)
VH: EVQLQQSGPELEKPGASVKISCKASGYSITDYNMNWVKLSNGKSLEWIGNIDPSHGGTTYNQKFKGKATLTVDKSSSTAYMQLKSLTSEDSAVYHCARSTLYGNSAMDCWGQGTSVTVSS
VL: SIVMTQTPKFLLVPAGDRVTITCKASQSVNNDVTWYQQKPGQSPKLLIYYASNRYTGVPDRFTGSGYGTDFTFTISTVQAEDLAVYFCQQDYSSPLTFGAGTKLEL
notes: also called mAb 2A2; 2A2.2a; source: Freestyle 293-F or 293-S cells, transfected, purified (KappaSelect, MonoS cation exchange)
B4: 18F25 Fab (Fab, V domains shown)
VH: QVQLQQSGAELARPGASVKLSCKASGYTFTNYWMQWVKQRPGQGLEWFGAIYPGDGDTRYTQKFKGKATLTADKSSSTAYMQLSSLASEDSAVYYCARSLYLGAMDYWGQGTSVTVSS
VL: DIVMTQSHKFMSTSVGDRVSITCKASQDVTNDVAWYQQKPGQSPKLLIYSASYRYTGVPDRFTGSGSGTDFIFTISSVQAEDLAVYYCQQHYSAPPTFGGGTKLEIK
notes: also called mAb 18F25; 18F25.1; source: Freestyle 293-F or 293-S cells, transfected, purified (KappaSelect, MonoS cation exchange)
B5: RUPA-44 Fab (Fab, V domains shown)
VH: QLQLQESGPGLVKPSETLSLTCTVSGGSISRSPYYWGWIRQPPGKGLEWFGSIYNNGSTYYNPPLKSRLTISVDTSKNQFSLKLSSVTAADTAVYYCARHGGSTGMKVVVIAPPDYWGQGTLVTVSS
VL: DIQMTQSPATLSASVGDRVTITCRASQSISSWLAWYQQKPGEAPKLLIYKASSLQSGVPSRFSGSGSGTKFSLTISSLQPDDFATFYCQQYHSYPYTFGQGTKLEIK
notes: as for B1
B6: RUPA-47 Fab (Fab, V domains shown)
VH: QVQLVQSGAEVKKPGASVKLSCTASGYTFTNFGITWVRQAPGQGLEWMAWISVYSGDTDYAQRFQGRVTMTTDTSTRTAYMEMRSLSFDDTAVYYCVRGGRDSPILGGYWGQGTLVTVSS
VL: EIVLTQSPGTLSLSPGERVTLSCRASQSVRSMYLAWYQQKPGQAPRLLIHGASIRATGIPDRFSGSGSGTDFTLTISRLEREDFAVYYCHQYGSSPLTFGGGTKVESK
notes: as for B1

Experiments:
[1] = molecular target: Pfs48/45 (endogenous) (Plasmodium falciparum (endogenous in …, UniProt Q8I6T1)); experiment: cryo-EM structure; conditions: both partners purified
[2] = molecular target: T1, Pfs230:Pfs48/45 complex (endogenous, FLAG-tag purified) (Plasmodium falciparum (isolate 3D7)., UniProt P68874;Q8I6T1); experiment: native gel or EMSA; conditions: both partners purified
T1 construct: not shown: 3xFLAG, C-terminal, kept

[3] = molecular target: T2, Pfs230 fused C-terminally with a 3xFLAG-C-tag (endogenous, parasite line iGP2^230-tag) (Plasmodium falciparum (endogenous in …, UniProt P68874 21-3135)); experiment: affinity purification with mass spectrometry; conditions: partners not purified
T2 construct: not shown: 3xFLAG, C-terminal, kept

[4] = molecular target: T3, Pfs230 fused C-terminally with a 3xFLAG-C-tag (endogenous, parasite line iGP2^230-tag) (Plasmodium falciparum (endogenous in …, UniProt P68874)); experiment: native gel or EMSA; conditions: both partners purified
T3 construct: not shown: 3xFLAG, C-terminal, kept
T3 sequence (P68874 21-3135): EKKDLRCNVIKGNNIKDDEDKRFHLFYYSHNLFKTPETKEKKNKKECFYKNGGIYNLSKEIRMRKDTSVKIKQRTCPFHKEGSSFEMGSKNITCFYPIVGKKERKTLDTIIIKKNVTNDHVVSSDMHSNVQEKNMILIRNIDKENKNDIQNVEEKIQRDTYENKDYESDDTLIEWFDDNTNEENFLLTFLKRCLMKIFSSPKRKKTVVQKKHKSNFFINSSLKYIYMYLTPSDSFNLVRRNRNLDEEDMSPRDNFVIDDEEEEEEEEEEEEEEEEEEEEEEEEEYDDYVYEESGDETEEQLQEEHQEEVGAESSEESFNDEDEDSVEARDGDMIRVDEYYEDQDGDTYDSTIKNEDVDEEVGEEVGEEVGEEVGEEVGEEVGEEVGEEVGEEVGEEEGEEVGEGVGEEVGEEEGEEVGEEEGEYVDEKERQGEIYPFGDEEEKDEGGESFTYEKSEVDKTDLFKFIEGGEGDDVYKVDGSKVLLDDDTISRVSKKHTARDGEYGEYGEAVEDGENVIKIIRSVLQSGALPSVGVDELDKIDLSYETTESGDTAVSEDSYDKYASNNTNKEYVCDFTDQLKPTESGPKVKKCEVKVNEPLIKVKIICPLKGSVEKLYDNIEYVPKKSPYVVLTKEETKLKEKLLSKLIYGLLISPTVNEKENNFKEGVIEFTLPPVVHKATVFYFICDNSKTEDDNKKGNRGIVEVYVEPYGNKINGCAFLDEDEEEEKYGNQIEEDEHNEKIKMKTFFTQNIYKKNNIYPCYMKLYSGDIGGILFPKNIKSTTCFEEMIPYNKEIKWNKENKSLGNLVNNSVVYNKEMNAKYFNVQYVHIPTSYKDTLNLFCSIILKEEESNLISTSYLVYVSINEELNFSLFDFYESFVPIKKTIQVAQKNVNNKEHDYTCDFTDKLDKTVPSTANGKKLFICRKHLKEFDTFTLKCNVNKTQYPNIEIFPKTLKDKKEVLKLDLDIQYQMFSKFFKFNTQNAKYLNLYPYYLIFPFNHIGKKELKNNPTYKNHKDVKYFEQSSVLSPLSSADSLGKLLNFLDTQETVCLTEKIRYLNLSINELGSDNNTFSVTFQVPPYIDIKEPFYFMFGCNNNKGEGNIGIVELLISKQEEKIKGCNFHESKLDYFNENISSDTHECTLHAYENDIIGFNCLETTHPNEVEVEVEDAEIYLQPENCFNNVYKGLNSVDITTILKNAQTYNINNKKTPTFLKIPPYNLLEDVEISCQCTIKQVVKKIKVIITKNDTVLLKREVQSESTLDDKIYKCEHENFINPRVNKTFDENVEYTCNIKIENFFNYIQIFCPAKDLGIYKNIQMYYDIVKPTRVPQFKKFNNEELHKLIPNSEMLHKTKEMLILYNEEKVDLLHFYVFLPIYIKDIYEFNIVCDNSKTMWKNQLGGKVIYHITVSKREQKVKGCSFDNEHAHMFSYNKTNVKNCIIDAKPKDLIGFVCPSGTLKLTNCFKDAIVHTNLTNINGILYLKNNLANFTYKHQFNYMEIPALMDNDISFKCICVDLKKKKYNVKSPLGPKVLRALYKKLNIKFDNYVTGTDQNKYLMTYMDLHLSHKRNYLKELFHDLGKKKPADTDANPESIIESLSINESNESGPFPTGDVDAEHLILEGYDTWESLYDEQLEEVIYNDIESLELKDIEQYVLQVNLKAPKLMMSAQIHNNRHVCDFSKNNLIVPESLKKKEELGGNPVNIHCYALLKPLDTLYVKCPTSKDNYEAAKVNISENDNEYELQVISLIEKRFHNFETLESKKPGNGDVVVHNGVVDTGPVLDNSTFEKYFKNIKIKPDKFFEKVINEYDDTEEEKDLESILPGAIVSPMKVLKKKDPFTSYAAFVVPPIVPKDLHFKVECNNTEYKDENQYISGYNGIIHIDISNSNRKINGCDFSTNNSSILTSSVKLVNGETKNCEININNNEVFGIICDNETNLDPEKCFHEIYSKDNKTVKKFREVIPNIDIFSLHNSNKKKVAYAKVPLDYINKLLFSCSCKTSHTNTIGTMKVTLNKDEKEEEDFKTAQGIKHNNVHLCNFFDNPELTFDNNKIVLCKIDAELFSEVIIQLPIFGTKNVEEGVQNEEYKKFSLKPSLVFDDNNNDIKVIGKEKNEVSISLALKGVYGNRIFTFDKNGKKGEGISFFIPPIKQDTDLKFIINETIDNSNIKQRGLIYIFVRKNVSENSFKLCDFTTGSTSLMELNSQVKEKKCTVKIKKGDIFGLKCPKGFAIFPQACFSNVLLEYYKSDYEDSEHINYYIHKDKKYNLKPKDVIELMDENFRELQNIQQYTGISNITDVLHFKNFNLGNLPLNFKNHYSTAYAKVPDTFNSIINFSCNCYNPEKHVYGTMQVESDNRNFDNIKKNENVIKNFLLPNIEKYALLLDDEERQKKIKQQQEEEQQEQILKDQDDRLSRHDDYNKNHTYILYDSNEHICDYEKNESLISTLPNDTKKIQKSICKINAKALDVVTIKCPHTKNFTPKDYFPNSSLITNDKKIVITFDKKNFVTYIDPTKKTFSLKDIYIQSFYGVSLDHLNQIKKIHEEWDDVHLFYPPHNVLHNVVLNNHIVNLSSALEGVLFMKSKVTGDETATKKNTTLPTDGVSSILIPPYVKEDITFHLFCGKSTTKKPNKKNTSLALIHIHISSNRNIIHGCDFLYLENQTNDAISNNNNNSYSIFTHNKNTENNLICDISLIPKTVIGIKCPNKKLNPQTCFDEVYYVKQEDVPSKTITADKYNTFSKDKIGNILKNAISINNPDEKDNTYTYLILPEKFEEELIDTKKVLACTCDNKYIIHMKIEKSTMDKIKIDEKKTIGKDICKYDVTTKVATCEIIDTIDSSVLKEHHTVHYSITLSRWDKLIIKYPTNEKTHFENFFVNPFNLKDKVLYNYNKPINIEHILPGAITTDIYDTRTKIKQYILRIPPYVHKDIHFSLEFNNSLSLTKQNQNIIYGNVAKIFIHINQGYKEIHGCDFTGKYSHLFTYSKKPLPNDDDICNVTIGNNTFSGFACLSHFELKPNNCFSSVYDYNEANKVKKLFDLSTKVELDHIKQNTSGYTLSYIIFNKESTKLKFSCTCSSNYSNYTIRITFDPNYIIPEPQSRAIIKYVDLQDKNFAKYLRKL

[5] = molecular target: T4, Pfs230D7 (recombinant, WT) (Plasmodium falciparum 3D7, UniProt P68874); experiment: SPR; conditions: both partners purified
T4 construct: source: wheat germ cell-free extract WEPRO7240H with Disulfide Bond Enhancer Enzyme Set, purified (Ni Sepharose 6 Fast Flow)

Row | Binder | binding result [1] | binding result [2] | binding result [4] | further results
1 | B1 | binds | binds |  | 
2 | B2 |  |  |  | binding result [3]: binds
3 | B3 |  |  | binds | 
4 | B4 |  |  |  | Kd [5]: 1.8 nM
5 | B5 | binds |  |  | 
6 | B6 |  | binds | no binding (tested: tenfold molar excess Fab) | 
